PMC7587433

How the values were obtained:
[1] = target: rFN12-14 (recombinant fibronectin type III repeats 12 to 14); experiment: SPR; Biacore T200, C1 sensor chip; rFN12-14 immobilised (~870 RU); rF-, rFG-repeat or multiple repeats in HBS-EP injected at 40 μl/min; double referencing
[2] = target: fibronectin (full-length human Fn, Sigma-Aldrich) (human) (UniProt P02751); experiment: SPR; Biacore T200, C1 sensor chip, 25°C, HBS-EP (10 mM HEPES pH 7.4, 150 mM NaCl, 3 mM EDTA, 0.005% Surfactant P20); Fn immobilised by amine coupling (~1,000 RU); rF- and rFG-repeats injected at 40 μl/min

Substance | Kd [1] | Kd [2]
r2F-repeats (recombinant Embp fragment, aa 2569 to 2908) (domain or fragment) | 10 µM | –
r2FG-repeats (recombinant Embp fragment, aa 6777 to 7028) (domain or fragment) | 0.5 µM | –
r4F-repeats (recombinant Embp fragment, aa 2569 to 3248) (domain or fragment) | 20 µM | –
rF-repeat (recombinant first F-repeat of Embp, aa 2569 to 2738) | – | 4 µM
rF-repeat (recombinant first F-repeat of Embp, aa 2569 to 2738) (domain or fragment) | 29 µM | –
rFG-repeat (recombinant 19th FG-repeat of Embp, aa 6777 to 6902) (domain or fragment) | 0.13 µM | 0.0016 µM
